# Reference: US20170015742A1 (published 2017)
# B1: 9A8.12-LS-9E8.4E DVD-Ig (PR-1577547) (bispecific antibody, human IgG1, kappa, L234A L235A)
# heavy: EVQLVQSGAEVKKPGASVKVSCKASGYTFTNYGMYWVRQAPGQGLEWMGWINTETGKPIYADDFKGRVTMTTDTSTSTAYMELRSLRSDDTAVYYCARVDYDGSFWFAYWGQGTLVTVSSASTKGPSVFPLAPEVTLRESGPALVKPTQTLTLTCTFSGFSLSTYGMGVGWIRQPPGKALEWLANIWWDDDKYYNPSLKNRLTISKDTSKNQVVLTMTNMDPVDTATYYCARIESIGTTYSFDYWGQGTMVTVSSASTKGPSVFPLAPSSKSTSGGTAALGCLVKDYFPEPVTVSWNSGALTSGVHTFPAVLQSSGLYSLSSVVTVPSSSLGTQTYICNVNHKPSNTKVDKKVEPKSCDKTHTCPPCPAPEAAGGPSVFLFPPKPKDTLMISRTPEVTCVVVDVSHEDPEVKFNWYVDGVEVHNAKTKPREEQYNSTYRVVSVLTVLHQDWLNGKEYKCKVSNKALPAPIEKTISKAKGQPREPQVYTLPPSREEMTKNQVSLTCLVKGFYPSDIAVEWESNGQPENNYKTTPPVLDSDGSFFLYSKLTVDKSRWQQGNVFSCSVMHEALHNAYTQKSLSLSPGK
# light: DTQLTQSPSSLSASVGDRVTITCRASESVSTVIHWYQQKPGKQPKLLIHGASNLESGVPSRFSGSGSGTDFTLTISSLQPEDFATYFCQQHWNDPPTFGQGTKLEIKRTVAAPEFVLTQSPGTLSLSPGERATLSCERSSGDIGESYVSWYQQKPGQAPRLVIYADDQRPSGIPDRFSGSGSGTDFTLTISRLEPEDFAVYYCQSYDINIDIVFGGGTKVEIKRTVAAPSVFIFPPSDEQLKSGTASVVCLLNNFYPREAKVQWKVDNALQSGNSQESVTEQDSKDSTYSLSSTLTLSKADYEKHKVYACEVTHQGLSSPVTKSFNRGEC
# B2: 9E8.4E-SL-9A8.12 DVD-Ig (PR-1577548) (bispecific antibody, human IgG1, kappa, L234A L235A)
# heavy: EVTLRESGPALVKPTQTLTLTCTFSGFSLSTYGMGVGWIRQPPGKALEWLANIWWDDDKYYNPSLKNRLTISKDTSKNQVVLTMTNMDPVDTATYYCARIESIGTTYSFDYWGQGTMVTVSSASTKGPEVQLVQSGAEVKKPGASVKVSCKASGYTFTNYGMYWVRQAPGQGLEWMGWINTETGKPIYADDFKGRVTMTTDTSTSTAYMELRSLRSDDTAVYYCARVDYDGSFWFAYWGQGTLVTVSSASTKGPSVFPLAPSSKSTSGGTAALGCLVKDYFPEPVTVSWNSGALTSGVHTFPAVLQSSGLYSLSSVVTVPSSSLGTQTYICNVNHKPSNTKVDKKVEPKSCDKTHTCPPCPAPEAAGGPSVFLFPPKPKDTLMISRTPEVTCVVVDVSHEDPEVKFNWYVDGVEVHNAKTKPREEQYNSTYRVVSVLTVLHQDWLNGKEYKCKVSNKALPAPIEKTISKAKGQPREPQVYTLPPSREEMTKNQVSLTCLVKGFYPSDIAVEWESNGQPENNYKTTPPVLDSDGSFFLYSKLTVDKSRWQQGNVFSCSVMHEALHNAYTQKSLSLSPGK
# light: EFVLTQSPGTLSLSPGERATLSCERSSGDIGESYVSWYQQKPGQAPRLVIYADDQRPSGIPDRFSGSGSGTDFTLTISRLEPEDFAVYYCQSYDINIDIVFGGGTKVEIKRTVAAPSVFIFPPDTQLTQSPSSLSASVGDRVTITCRASESVSTVIHWYQQKPGKQPKLLIHGASNLESGVPSRFSGSGSGTDFTLTISSLQPEDFATYFCQQHWNDPPTFGQGTKLEIKRTVAAPSVFIFPPSDEQLKSGTASVVCLLNNFYPREAKVQWKVDNALQSGNSQESVTEQDSKDSTYSLSSTLTLSKADYEKHKVYACEVTHQGLSSPVTKSFNRGEC
# B3: AB014-GS10-9E8.4 VH-VK (bispecific antibody, human IgG1, kappa, L234A L235A)
# heavy: EVQLVESGGGLVQPGGSLRLSCAASGYTFTNYGMNWVRQAPGKGLEWVGWINTYTGEPTYAADFKRRFTFSLDTSKSTAYLQMNSLRAEDTAVYYCAKYPHYYGSSHWYFDVWGQGTLVTVSSASTKGPSVFPLAPSSKSTSGGTAALGCLVKDYFPEPVTVSWNSGALTSGVHTFPAVLQSSGLYSLSSVVTVPSSSLGTQTYICNVNHKPSNTKVDKKVEPKSCDKTHTCPPCPAPEAAGGPSVFLFPPKPKDTLMISRTPEVTCVVVDVSHEDPEVKFNWYVDGVEVHNAKTKPREEQYNSTYRVVSVLTVLHQDWLNGKEYKCKVSNKALPAPIEKTISKAKGQPREPQVYTLPPSREEMTKNQVSLTCLVKGFYPSDIAVEWESNGQPENNYKTTPPVLDSDGSFFLYSKLTVDKSRWQQGNVFSCSVMHEALHNAYTQKSLSLSPGKGGSGGGGSGGEVTLRESGPALVKPTQTLTLTCTFSGFSLSTYGMGVGWIRQPPGKALEWLANIWWDDDKYYNPSLKNRLTISKDTSKNQVVLTMTNMDPVDTATYYCARIESIGTTYSFDYWGQGTMVTVSSGGGGSGGGGSGGGGSEIVLTQSPGTLSLSPGERATLSCERSSGDIGDSYVSWYQQKPGQAPRLVIYADDQRPSGIPDRFSGSGSGTDFTLTISRLEPEDFAVYYCQSYDINIDIVFGGGTKVEIK
# light: not shown
# B4: AB014-GS6-9E8.4 VH-VK (bispecific antibody, human IgG1, kappa, L234A L235A)
# heavy: EVQLVESGGGLVQPGGSLRLSCAASGYTFTNYGMNWVRQAPGKGLEWVGWINTYTGEPTYAADFKRRFTFSLDTSKSTAYLQMNSLRAEDTAVYYCAKYPHYYGSSHWYFDVWGQGTLVTVSSASTKGPSVFPLAPSSKSTSGGTAALGCLVKDYFPEPVTVSWNSGALTSGVHTFPAVLQSSGLYSLSSVVTVPSSSLGTQTYICNVNHKPSNTKVDKKVEPKSCDKTHTCPPCPAPEAAGGPSVFLFPPKPKDTLMISRTPEVTCVVVDVSHEDPEVKFNWYVDGVEVHNAKTKPREEQYNSTYRVVSVLTVLHQDWLNGKEYKCKVSNKALPAPIEKTISKAKGQPREPQVYTLPPSREEMTKNQVSLTCLVKGFYPSDIAVEWESNGQPENNYKTTPPVLDSDGSFFLYSKLTVDKSRWQQGNVFSCSVMHEALHNAYTQKSLSLSPGKGGSGGGEVTLRESGPALVKPTQTLTLTCTFSGFSLSTYGMGVGWIRQPPGKALEWLANIWWDDDKYYNPSLKNRLTISKDTSKNQVVLTMTNMDPVDTATYYCARIESIGTTYSFDYWGQGTMVTVSSGGGGSGGGGSGGGGSEIVLTQSPGTLSLSPGERATLSCERSSGDIGDSYVSWYQQKPGQAPRLVIYADDQRPSGIPDRFSGSGSGTDFTLTISRLEPEDFAVYYCQSYDINIDIVFGGGTKVEIK
# light: not shown
# B5: AB014-GS15-9E8.4 VH-VK (bispecific antibody, human IgG1, kappa, L234A L235A)
# heavy: EVQLVESGGGLVQPGGSLRLSCAASGYTFTNYGMNWVRQAPGKGLEWVGWINTYTGEPTYAADFKRRFTFSLDTSKSTAYLQMNSLRAEDTAVYYCAKYPHYYGSSHWYFDVWGQGTLVTVSSASTKGPSVFPLAPSSKSTSGGTAALGCLVKDYFPEPVTVSWNSGALTSGVHTFPAVLQSSGLYSLSSVVTVPSSSLGTQTYICNVNHKPSNTKVDKKVEPKSCDKTHTCPPCPAPEAAGGPSVFLFPPKPKDTLMISRTPEVTCVVVDVSHEDPEVKFNWYVDGVEVHNAKTKPREEQYNSTYRVVSVLTVLHQDWLNGKEYKCKVSNKALPAPIEKTISKAKGQPREPQVYTLPPSREEMTKNQVSLTCLVKGFYPSDIAVEWESNGQPENNYKTTPPVLDSDGSFFLYSKLTVDKSRWQQGNVFSCSVMHEALHNAYTQKSLSLSPGKGGSGGGGSGGGGSGGEVTLRESGPALVKPTQTLTLTCTFSGFSLSTYGMGVGWIRQPPGKALEWLANIWWDDDKYYNPSLKNRLTISKDTSKNQVVLTMTNMDPVDTATYYCARIESIGTTYSFDYWGQGTMVTVSSGGGGSGGGGSGGGGSEIVLTQSPGTLSLSPGERATLSCERSSGDIGDSYVSWYQQKPGQAPRLVIYADDQRPSGIPDRFSGSGSGTDFTLTISRLEPEDFAVYYCQSYDINIDIVFGGGTKVEIK
# light: not shown
# B6: 9E8.4E-GS-9A8.12 (bispecific antibody, human IgG1, kappa, L234A L235A)
# heavy: EVTLRESGPALVKPTQTLTLTCTFSGFSLSTYGMGVGWIRQPPGKALEWLANIWWDDDKYYNPSLKNRLTISKDTSKNQVVLTMTNMDPVDTATYYCARIESIGTTYSFDYWGQGTMVTVSSGGGGSGGGGSEVQLVQSGAEVKKPGASVKVSCKASGYTFTNYGMYWVRQAPGQGLEWMGWINTETGKPIYADDFKGRVTMTTDTSTSTAYMELRSLRSDDTAVYYCARVDYDGSFWFAYWGQGTLVTVSSASTKGPSVFPLAPSSKSTSGGTAALGCLVKDYFPEPVTVSWNSGALTSGVHTFPAVLQSSGLYSLSSVVTVPSSSLGTQTYICNVNHKPSNTKVDKKVEPKSCDKTHTCPPCPAPEAAGGPSVFLFPPKPKDTLMISRTPEVTCVVVDVSHEDPEVKFNWYVDGVEVHNAKTKPREEQYNSTYRVVSVLTVLHQDWLNGKEYKCKVSNKALPAPIEKTISKAKGQPREPQVYTLPPSREEMTKNQVSLTCLVKGFYPSDIAVEWESNGQPENNYKTTPPVLDSDGSFFLYSKLTVDKSRWQQGNVFSCSVMHEALHNAYTQKSLSLSPGK
# light: EFVLTQSPGTLSLSPGERATLSCERSSGDIGESYVSWYQQKPGQAPRLVIYADDQRPSGIPDRFSGSGSGTDFTLTISRLEPEDFAVYYCQSYDINIDIVFGGGTKVEIKRGGSGGGGSGDTQLTQSPSSLSASVGDRVTITCRASESVSTVIHWYQQKPGKQPKLLIHGASNLESGVPSRFSGSGSGTDFTLTISSLQPEDFATYFCQQHWNDPPTFGQGTKLEIKRTVAAPSVFIFPPSDEQLKSGTASVVCLLNNFYPREAKVQWKVDNALQSGNSQESVTEQDSKDSTYSLSSTLTLSKADYEKHKVYACEVTHQGLSSPVTKSFNRGEC
# B7: 9E8.4E-LS-9A8.12 (bispecific antibody, human IgG1, kappa, L234A L235A)
# heavy: EVTLRESGPALVKPTQTLTLTCTFSGFSLSTYGMGVGWIRQPPGKALEWLANIWWDDDKYYNPSLKNRLTISKDTSKNQVVLTMTNMDPVDTATYYCARIESIGTTYSFDYWGQGTMVTVSSASTKGPSVFPLAPEVQLVQSGAEVKKPGASVKVSCKASGYTFTNYGMYWVRQAPGQGLEWMGWINTETGKPIYADDFKGRVTMTTDTSTSTAYMELRSLRSDDTAVYYCARVDYDGSFWFAYWGQGTLVTVSSASTKGPSVFPLAPSSKSTSGGTAALGCLVKDYFPEPVTVSWNSGALTSGVHTFPAVLQSSGLYSLSSVVTVPSSSLGTQTYICNVNHKPSNTKVDKKVEPKSCDKTHTCPPCPAPEAAGGPSVFLFPPKPKDTLMISRTPEVTCVVVDVSHEDPEVKFNWYVDGVEVHNAKTKPREEQYNSTYRVVSVLTVLHQDWLNGKEYKCKVSNKALPAPIEKTISKAKGQPREPQVYTLPPSREEMTKNQVSLTCLVKGFYPSDIAVEWESNGQPENNYKTTPPVLDSDGSFFLYSKLTVDKSRWQQGNVFSCSVMHEALHNAYTQKSLSLSPGK
# light: EFVLTQSPGTLSLSPGERATLSCERSSGDIGESYVSWYQQKPGQAPRLVIYADDQRPSGIPDRFSGSGSGTDFTLTISRLEPEDFAVYYCQSYDINIDIVFGGGTKVEIKRTVAAPDTQLTQSPSSLSASVGDRVTITCRASESVSTVIHWYQQKPGKQPKLLIHGASNLESGVPSRFSGSGSGTDFTLTISSLQPEDFATYFCQQHWNDPPTFGQGTKLEIKRTVAAPSVFIFPPSDEQLKSGTASVVCLLNNFYPREAKVQWKVDNALQSGNSQESVTEQDSKDSTYSLSSTLTLSKADYEKHKVYACEVTHQGLSSPVTKSFNRGEC
# Target: recombinant human PDGF-BB (human, UniProt P01127 82-190)
# Experiment: cell-based or functional assay
# Target sequence in this assay (P01127 82-190 limits assumed): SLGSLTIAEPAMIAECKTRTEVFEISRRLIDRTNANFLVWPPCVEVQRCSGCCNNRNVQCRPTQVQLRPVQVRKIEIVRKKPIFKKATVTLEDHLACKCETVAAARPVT
row,Binder,NIH-3T3 hPDGF-BB Potency IC50 [nM]
1,B1,0.133
2,B2,0.147

# Target: recombinant human VEGF165 (human, UniProt P15692 207-395)
# Experiment: cell-based or functional assay
# Chain of recombinant human VEGF165 (P15692 other isoform, or with tags, fused parts or gaps limits assumed): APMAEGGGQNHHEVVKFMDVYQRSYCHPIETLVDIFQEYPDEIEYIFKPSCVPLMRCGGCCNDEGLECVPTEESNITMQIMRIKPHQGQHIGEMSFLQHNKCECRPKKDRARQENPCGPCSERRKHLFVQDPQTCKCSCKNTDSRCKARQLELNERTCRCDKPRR
row,Binder,Potency IC50 (nM) HMVEC-d hVEGF165 [nM]
1,B3,0.095
2,B4,0.124
3,B5,0.13

# Target: recombinant human PDGF-BB (human, UniProt P01127 82-190)
# Experiment: cell-based or functional assay
# Remark: another data set of the same source
# Target sequence in this assay (P01127 82-190 limits assumed): as the sequence (P01127 82-190 limits assumed) above
row,Binder,Potency IC50 (nM) NIH-3T3 hPDGF-BB [nM]
1,B3,0.063
2,B4,0.222
3,B6,0.327
4,B7,0.066
5,B5,0.066
